Measurements from US10100120B2, “Antibody which specifically binds to human CRTH2” (KYOWA HAKKO KIRIN CO., LTD, priority 2015, dated 2018).

Tests used:
[1] = test system: differentiation-induced Th1 cells; test: Reactivity against differentiation-induced Th1 cells; type: binding, human; conditions: antibody 10 μg/mL, 4° C., 1 hour; FIG. 15
Protocol: Healthy person-derived frozen PBMC (Allcells, LLC.) was washed once with 20 mL of PBMC culture medium containing 50 μL of DNase I recombinant, RNase-free (Roche Diagnostics K.K.), suspended with 20 mL of PBMC culture medium containing 50 μL of DNase I recombinant, RNase-free, and allowed to stand in a 5% CO2 incubator at 37° C. for 2 hours.
Thereafter, the cells were washed twice with the MACS buffer described in Example 11 and naive CD4-positive T-cells were isolated by a negative selection method using Naive CD4^+ T Cell Isolation Kit II human (Miltenyi Biotec) according to the attached instructions. The negative selection was performed twice in order to improve purity of the naive CD4-positive T-cells.
According to the method described in J Immunol, 2002. 169(5): p. […]
After the cells were washed, 10 μg/mL of CELL LAB Mouse Anti-Rat Kappa (kappa light chain specific) FITC (Beckman Coulter Inc.) diluted with SM was added to wells to which Lym2 antibody or BM16 was added, 10 μg/mL of CELL LAB Goat Anti-Mouse IgG (γ chain specific) Fluorescein (FITC) Conjugate (Beckman Coulter Inc.) diluted with SM was added to wells to which 301108 was added at a final concentration of 10 μg/mL to cause a reaction at 4° C. for 1 hour. After the cells were washed again, the cells were suspended with SM, and the fluorescent intensity was analyzed by flow cytometry (BD Biosciences, FACS CantoII).

[2] = test system: human eosinophils; test: Antagonist activity using shape change of human eosinophils as index (Example 19); type: cell-based; conditions: antibody 10 μg/mL or small molecule 10 μM, DKPGD2 0.1-1000 nM; FIG. 16
Protocol: Eosinophils were separated from human peripheral blood in the same manner as in Example 11. The isolated human eosinophils were suspended with Dulbecco's phosphate buffered saline (hereinafter, referred to as D-PBS (−)) (NACALAI TESQUE, Inc.) and performed a reaction in a 5% CO2 incubator at 37° C. for 1 hour and 30 minutes. Thereafter, the cells were seeded in a 96-well plate at 2×10^5 cells/well using 10% FBS-containing RPMI1640. Next, an isotype control antibody [CELL LAB Rat IgG2b Isotype Control (Beckman Coulter Inc.)] at a final concentration of 10 μg/mL or Lym2 antibody; or small molecular CRTH2 antagonist 00000459 (Cayman Chemical) at a final concentration of 10 μM as a positive control, was added thereto to cause a reaction in a 5% CO2 incubator at 37° C. for 30 minutes.
Next, DKPGD2 (Cayman Chemical) at each of final concentrations of 0.1, 1, 10, 100, and 1000 nM was added thereto to cause a reaction in a 5% CO2 incubator at 37° C. for 60 minutes. After the reaction, the cells were washed twice with ice-cold PBS, Fixation Buffer (BD Biosciences) was added at 200 μL/well, and the resultant was suspended well and allowed to stand at 4° C. for 30 minutes. After that, the cells were washed twice with SM, and shape change of eosinophils was analyzed by flow cytometry (BD Biosciences, FACS CantoII).
The shape change of eosinophils was analyzed based on an increase in Forward Scatter Light (FSC) plot which is an index of the cell size, the cell surface area, or the cell diameter in the analysis using flow cytometry and the percentage (%) of eosinophils detected in the gate of high FSC was calculated based on the FSC of DKPGD2-untreated eosinophils.

B1: Lym2 antibody: rat anti-human CRTH2 monoclonal antibody from hybridoma Lym2, rat IgG2b; VH SEQ ID NO: 17, VL SEQ ID NO: 19 (antibody, listed as Rattus norvegicus, V domains shown)
VH: EVQLVESGGGLVQPGRSMKLSCAASGFTFSNYYMAWVRQAPKKGLEWVATISYDGSSTYYRDSVKGRFTISRDNAKSTLYLQMDSLRSEDTATYYCARHRGYYYSGAGYFDYWGQGVMVTVSS
VL: DVVLTQTPVSLSVTLGDQASISCRSSQSLEYSDGYTYLEWYLQKPGQSPQVLIYGVSNRFSGVPDRFIGSGSGTDFTLKISRVEPEDLGVYYCFQATHDPLTFGSGTKLEIK
Which “reactivity against the differentiation-induced Th1” value [1] does the source give for B1 here?
The value was “did not exhibit reactivity”.

What about the “inhibition of DKPGD2-dependent shape change of eosinophils (antagonist activity)” value [2] of the same molecule?
The value was “didn't inhibit”.
